Laboratory results taken from paper PMC7081908, “Glycan Profiles of gp120 Protein Vaccines from Four Major HIV-1 Subtypes Produced from Different Host Cell Lines under Non-GMP or GMP Conditions” (Journal of Virology, 2020).
Where “and” joins values, the source holds several entries; their conditions need not be identical. Identical values can stand only once.

Target: IgG-CD4 protein (fusion protein of human CD4 domains 1 and 2 with human IgG1 Fc at the C terminus) (human)
Experiment: BLI; Octet QKe; IgG-CD4 loaded onto protein G sensors at 20 ug/ml in ForteBio kinetics buffer; serial dilutions of gp120 (600 nM to 0.4 nM) in solution; Kd = koff/kon, 1:1 fitting model; two GMP lots of each gp120
Details: both partners purified

B1: GMP-grade gp120 protein, HIV-1 clade A isolate 92UG037.8 (natural protein)
chain: not shown
Kd: 5.48 nM and 3.62 nM
